Experimental data reported in patent US20260241018A1 (BIOCYTOGEN PHARMACEUTICALS BEIJING, published 2026).

Experiments:
[1] = biological target: T1, dog 5T4 expressed on CHO-S cells (CHO-d5T4 cells) (dog); experiment: flow cytometry, CHO-d5T4 cells
T1 chain: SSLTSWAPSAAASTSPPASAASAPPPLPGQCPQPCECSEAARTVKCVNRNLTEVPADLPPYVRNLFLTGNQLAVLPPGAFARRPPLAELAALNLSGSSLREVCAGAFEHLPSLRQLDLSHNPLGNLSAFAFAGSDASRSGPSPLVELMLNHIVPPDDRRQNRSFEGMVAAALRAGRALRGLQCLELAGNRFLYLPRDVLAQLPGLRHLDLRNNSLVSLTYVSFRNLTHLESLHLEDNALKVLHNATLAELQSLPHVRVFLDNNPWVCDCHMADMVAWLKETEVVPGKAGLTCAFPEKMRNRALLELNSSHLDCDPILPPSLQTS
Method: (§1) CHO-h5T4 cells, CHO-m5T4 cells, CHO-fas5T4 cells or CHO-d5T4 cells were transferred to a 96-well plate at a density of 2×10⁵ cells/well respectively. The anti-5T4 antibodies were added to the 96-well plate, and incubated at 4° C. for 30 min. Then, the cells were incubated with the secondary antibody anti-hlgG-Fc-Alex Flour 647 (RL1-H) (Jackson ImmunoResearch Laboratories, Inc., Cat #: 109-606-170) at 4° C. in the dark for 15 minutes before flow cytometry analysis.

[2] = biological target: T2, monkey (Macaca fascicularis) 5T4 expressed on CHO-S cells (CHO-fas5T4 cells) (monkey (Macaca fascicularis), UniProt Q4R8Y9 35-355); experiment: flow cytometry, CHO-fas5T4 cells
T2 construct: also called monkey 5T4
T2 sequence: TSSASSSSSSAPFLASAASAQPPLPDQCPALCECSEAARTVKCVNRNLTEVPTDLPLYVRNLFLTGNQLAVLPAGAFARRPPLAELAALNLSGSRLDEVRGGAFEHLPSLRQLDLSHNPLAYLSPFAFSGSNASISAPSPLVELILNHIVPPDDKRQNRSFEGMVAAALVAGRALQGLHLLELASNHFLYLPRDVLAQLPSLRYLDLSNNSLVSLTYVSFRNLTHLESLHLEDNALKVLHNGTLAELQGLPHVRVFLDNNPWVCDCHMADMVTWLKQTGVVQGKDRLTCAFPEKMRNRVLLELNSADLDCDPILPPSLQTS
Method: as §1

h5T4-His protein [3] = biological target: T3, h5T4-His protein (human, UniProt Q13641 32-355, limits assumed); experiment: epitope binding assay, h5T4-His captured; binder = analyte 2; competitor (analyte 1): 32E3
T3 construct: also called His-tagged human 5T4 protein; not shown: His tag
T3 sequence (looked up): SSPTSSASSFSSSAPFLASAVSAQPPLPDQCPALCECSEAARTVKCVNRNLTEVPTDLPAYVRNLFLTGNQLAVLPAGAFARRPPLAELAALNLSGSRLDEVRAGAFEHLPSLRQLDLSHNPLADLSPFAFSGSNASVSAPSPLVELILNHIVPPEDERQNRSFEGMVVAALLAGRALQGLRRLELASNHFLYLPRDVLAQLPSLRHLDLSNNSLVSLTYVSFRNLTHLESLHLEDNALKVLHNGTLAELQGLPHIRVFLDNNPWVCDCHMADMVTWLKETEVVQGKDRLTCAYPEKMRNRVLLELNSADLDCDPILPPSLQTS
Method: (§2) Epitope binding assays were performed using ForteBio Octet system to determine whether two anti-5T4 antibodies target the same or overlapping epitopes. 1×HBS-EP+buffer (10 mM 4-(2-hydroxyethyl)-1-piperazineethanesulfonic acid (HEPES), 150 mM NaCl, 3 mM ethylenediaminetetraacetic acid (EDTA) and 0.05% P20, pH7.4) diluted from HBS-EP+buffer (10×) was used as the running buffer throughout the experiment. About 50 RU of h5T4-His protein was captured at a flow rate of 10 μL/min, and 200 nM of the tested antibody was injected at a flow rate of 30 μL/min to bind the ligand. Another comparison antibody was injected under the same conditions to determine whether the binding of different antibodies interfered with each other. The binding time was 180 s for each antibody.
(§3) The binding value of each antibody was obtained using Data Analysis HT 12.0. To quantify the interference of one antibody binding to another, a binding ratio was calculated to compare each pair of antibodies. The binding ratio is defined as the binding value of the second antibody (analyte 2), divided by the binding value of the first antibody (analyte 1). […] In general, antibody pairs that interfere with each other have the same or overlapping epitopes.

h5T4-His protein [4] = biological target: T3, h5T4-His protein; experiment: epitope binding assay, h5T4-His captured; binder = analyte 2; competitor (analyte 1): 32G8
Method: as §2, §3

[5] = biological target: T4, 5T4 on NCI-H226 cells, NCI-H2030 cells and HCC827 cells (UniProt Q13641 32-420, limits assumed); experiment: flow cytometry on NCI-H226 cells, Alexa Fluor 647 anti-human IgG Fc secondary antibody, MFI
T4 construct: whole, on cells
T4 sequence (looked up): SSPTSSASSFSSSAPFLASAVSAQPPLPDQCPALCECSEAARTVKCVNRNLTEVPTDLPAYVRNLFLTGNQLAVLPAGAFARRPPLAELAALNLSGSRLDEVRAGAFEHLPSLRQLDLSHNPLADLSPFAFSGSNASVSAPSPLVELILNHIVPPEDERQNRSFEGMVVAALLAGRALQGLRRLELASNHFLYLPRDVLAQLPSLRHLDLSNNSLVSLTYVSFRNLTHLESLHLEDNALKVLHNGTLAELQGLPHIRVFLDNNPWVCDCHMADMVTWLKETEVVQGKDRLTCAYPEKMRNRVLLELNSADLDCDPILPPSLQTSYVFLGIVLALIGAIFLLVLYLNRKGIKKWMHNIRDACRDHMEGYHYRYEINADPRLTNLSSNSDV
Method: NCI-H226 cells, NCI-H2030 cells or HCC827 cells were plated in a 96-well plate at a density of 2×10⁵ cells/well. Serially diluted purified anti-5T4 antibody 32G1 or the positive control PF06263507 analog-SI (maximum concentration: 20 μg/mL, 2-fold dilutions, 12 gradients) were added to each well and were incubated at 4° C. for 30 minutes. Then, after one wash with PBS, the cells were incubated with the secondary antibody Alexa Fluor® 647 anti human IgG Fcγ (Jackson ImmunoResearch Laboratories, Inc., Cat #: 109-606-170) at 4° C. for 15 minutes before flow cytometry analysis.
The cells were collected, and the mean fluorescence intensity (MFI) was determined.

Percentage of Positive Cells [1]: 56.3%
Percentage of Positive Cells [2]: 53.2%
binding ratio (h5T4-His protein [3]): 0.89
binding ratio (h5T4-His protein [4]): 0.82
EC50 (read off the curve) [5]: ~0.3 µg/mL
B1: 32G1 (antibody, V domains shown)
VH: QVQLVQSGGGLVKPGGSLRLSCVASGFTFSDYYMNWVRQAPGKGLEWISYVGTESIYTYYADTVKGRFTISRDNAKNSLYLQMNSLRAEDTALYYCARARDYNLYGMDVWGQGTTVTVSS
VL: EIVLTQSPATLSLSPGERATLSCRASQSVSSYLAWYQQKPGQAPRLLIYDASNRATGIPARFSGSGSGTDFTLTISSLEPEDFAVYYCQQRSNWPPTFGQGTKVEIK
notes: also called anti-5T4 antibody 32G1
